Measurements: patent publication US20250011413A1 (MCMASTER UNIVERSITY, published 2025)

Key:
[1] = target: T1, PF4/heparin complex (human PF4 complexed with heparin) (human, UniProt P02776 32-101); test: BLI (Octet), biotinylated PF4/heparin on streptavidin sensors, 1:1 model; scFv at 2.0 µg/mL
T1 construct: Multimeric complex of PF4 with heparin (not a protein); In the EIAs: PF4 captured on biotinylated heparin on streptavidin plates; In the SRA: platelets with 0.2 U/mL heparin; also called PF4 and heparin complexes
T1 sequence: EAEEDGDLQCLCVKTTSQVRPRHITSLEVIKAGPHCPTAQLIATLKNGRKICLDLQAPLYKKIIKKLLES
Description: (§1) The Octet-QK Red 96 (FortéBio, Menlo Park, CA) instrumentation was used to conduct all BLI experiments. A 96-well microtiter plate (black, flat-bottom) was used to hold 200 μL per well of either sample or buffer. Pre-coated streptavidin biosensor tips (FortéBio) were hydrated in phosphate buffered saline (PBS) containing 1% bovine serum albumin (BSA, Sigma-Aldrich) before performing all kinetic assays. Each step was performed at an operating temperature of 23° C. with agitation at 1000 rpm. Streptavidin tips were first equilibrated in PBS+1% BSA to establish a baseline. […] The PF4-coated tips were then dipped into PBS+1% BSA for 13 minutes to re-establish a baseline. Tips were then incubated in an analyte solution containing half-fold dilutions of wildtype scFv (4.0, 2.0, 1.0, 0.5, 0.25 μg/mL in PBS+1% BSA) for 10 minutes to measure association. For mutant scFv association, tips were incubated in an analyte solution containing 200 μL of each mutant and wildtype scFv at a final concentration of 1 μg/mL in PBS+1% BSA. Antibody dissociation steps were performed by dipping sensors in wells containing PBS+1% BSA for 56 minutes. The following negative controls included in these kinetic experiments were also measured: 200 μL of buffer to replace both the antigen and scFv and 200 μL buffer replacing scFv only. Each experiment was performed with PF4 or with PF4/heparin as the immobilized antigen.
(§2) BLI experiments were performed to evaluate binding responses and affinities of wildtype and mutant scFv. Biotinylated PF4 alone or complexed with heparin was immobilized on streptavidin biosensors and used to capture wildtype scFv. Half-fold serial dilutions of wildtype scFv ranging from 0.25 μg/mL to 4 μg/mL were used to determine the optimal concentrations for future experiments PF4 (PF4 FIG. 3; PF4/heparin FIG. 4).

[2] = target: T1, PF4/heparin complex (human PF4 …); test: BLI (Octet), biotinylated PF4/heparin on streptavidin sensors, 1:1 model; scFv at 4.0 µg/mL
Description: as §1, §2

[3] = target: T2, Human PF4 (CXCL4), biotinylated, without heparin (human, UniProt P02776 32-101, biotinylated with EZ-link-Sulfo-NHS-LC-Biotin (sites not given)); test: BLI (Octet), biotinylated PF4 without heparin on streptavidin sensors, 1:1 model; scFv at 0.5 µg/mL
T2 construct: Immobilised on streptavidin biosensors for BLI; also called PF4 alone; platelet factor 4
T2 sequence: T1 sequence
Description: as §1, §2

[4] = target: T2, Human PF4 (CXCL4), biotinylated, …; test: BLI (Octet), biotinylated PF4 without heparin on streptavidin sensors, 1:1 model; scFv at 1.0 µg/mL
Description: as §1, §2

[5] = target: T2, Human PF4 (CXCL4), biotinylated, …; test: BLI (Octet), biotinylated PF4 without heparin on streptavidin sensors, 1:1 model; scFv at 2.0 µg/mL
Description: as §1, §2

[6] = target: T2, Human PF4 (CXCL4), biotinylated, …; test: BLI (Octet), biotinylated PF4 without heparin on streptavidin sensors, 1:1 model; scFv at 4.0 µg/mL
Description: as §1, §2

[7] = target: T1, PF4/heparin complex (human PF4 …); test: BLI (Octet), biotinylated PF4/heparin on streptavidin sensors, 1:1 model; scFv at 0.25 µg/mL (response near baseline)
Description: as §1, with “antigen. […]” for “antigen.”

[8] = target: T2, Human PF4 (CXCL4), biotinylated, …; test: BLI (Octet), biotinylated PF4 without heparin on streptavidin sensors, 1:1 model; scFv at 0.25 µg/mL (response near baseline)
Description: (§3) All data was analyzed based on a 1:1 homogenous ligand binding model using Octet® User Software version 3.1.
as §1, with “Antibody dissociation steps were performed by dipping sensors in wells containing PBS+1% BSA for 56 minutes.” left out, “Each experiment was performed with PF4 or with PF4/heparin as the immobilized antigen.” left out

[9] = target: T1, PF4/heparin complex (human PF4 …); test: BLI (Octet), biotinylated PF4/heparin on streptavidin sensors, 1:1 model; scFv at 0.5 µg/mL (response near baseline, software limit value)
Description: as §1, with “antigen. […]” for “antigen.”

[10] = target: T1, PF4/heparin complex (human PF4 …); test: BLI (Octet), biotinylated PF4/heparin on streptavidin sensors, 1:1 model; scFv at 0.25 µg/mL (response near baseline, software limit value)
Description: as §1, with “antigen. […]” for “antigen.”

[11] = target: T2, Human PF4 (CXCL4), biotinylated, …; test: BLI (Octet), biotinylated PF4 without heparin on streptavidin sensors, 1:1 model; scFv at 0.25 µg/mL (response near baseline, software limit value)
Description: as §3
as §1, with “Antibody dissociation steps were performed by dipping sensors in wells containing PBS+1% BSA for 56 minutes.” left out, “Each experiment was performed with PF4 or with PF4/heparin as the immobilized antigen.” left out

B1: Wildtype scFv (KKO-derived single chain variable fragment) (scFv)
scFv: DIQMIQSQKFMSTSVGDRVTVTCKASQNVGTNVAWYQQKPGQSPNALIYSASYRYSGVPDRFTGSGSGTDFTLTITNVQSEDLADYFCQQYNSYPLTFGTGTKLDLKGGGGSGGGGSGGGGSVQLQQSGAELVKPGASVKLSCKASGYTFTNYFIYWVKQRPGQGLEWIGEINPRNGDTDFNEKFESRATLTVDKSSSTAYMQLSSLTSEDSAIYYCTRSPYGNNYGFTYWGQGTLVTVSA
notes: VL-(G4S)3 linker-VH; expressed in E. coli BL21 from pADL-22c, purified on Ni-NTA as histidine-tagged scFv, about 28 kDa; also called WT; KKO-scFv; not shown: histidine tag from the pADL-22c vector
**Q.** B1 was tested. Which Kd [1] did it give?
**A.** 9.18 nM

**Q.** And the koff [1]?
**A.** 0.000571 s⁻¹

**Q.** And the kon [1]?
**A.** 62100 M⁻¹ s⁻¹

**Q.** And the Kd [2]?
**A.** 39.3 nM

**Q.** What about the koff [2] of the same binder?
**A.** 0.000871 s⁻¹

**Q.** And the kon [2]?
**A.** 22200 M⁻¹ s⁻¹

**Q.** What about the Kd [3] of the same binder?
**A.** 34.5 nM

**Q.** And the koff [3]?
**A.** 0.0037 s⁻¹

**Q.** What about the kon [3] of the same binder?
**A.** 107000 M⁻¹ s⁻¹

**Q.** What about the Kd [4] of the same binder?
**A.** 5.71 nM

**Q.** And the koff [4]?
**A.** 0.000853 s⁻¹

**Q.** And the kon [4]?
**A.** 149000 M⁻¹ s⁻¹

**Q.** What about the Kd [5] of the same binder?
**A.** 9.59 nM

**Q.** And the koff [5]?
**A.** 0.000515 s⁻¹

**Q.** And the kon [5]?
**A.** 53800 M⁻¹ s⁻¹

**Q.** And the Kd [6]?
**A.** 24.1 nM

**Q.** And the koff [6]?
**A.** 0.000596 s⁻¹

**Q.** And the kon [6]?
**A.** 24800 M⁻¹ s⁻¹

**Q.** What about the koff [7] of the same binder?
**A.** 0.00042 s⁻¹

**Q.** What about the koff [8] of the same binder?
**A.** 0.021 s⁻¹

**Q.** What about the Kd [9] of the same binder?
**A.** < 0.001 nM

**Q.** What about the Kd [10] of the same binder?
**A.** < 0.001 nM

**Q.** What about the Kd [11] of the same binder?
**A.** < 0.001 nM
